According to patent publication US20250235501A1, “Methods and Compositions for Treating or Preventing Neurological Injury or Neurological Disorders” (University of Connecticut, priority 2024, published 2025):

Molecular target: T1, NMDARs (Mus musculus, UniProt P35436+Q01097)
T1 construct: from tissue; host or cells: mouse brain, membrane protein extract 24 h after MCAO or sham
Test: Surface expression of NMDARs in brains of MCAO mice (WB)
Assay type: in vivo
Conditions: 100 nmol/kg ip 15 mins before MCAO; 24 hrs after MCAO
Procedure: FIGS. 7D and 7E show the effects of TAT-EE3 on surface expression of NMDARs in WT and nM2KO mice 24 hrs after MCAO or sham procedure. TAT-SC and TAT-EE3 were ip administrated (100 nmol/kg) 15 mins before MCAO or sham procedure. FIG. 7D show the WB of surface expression of NMDARs from two representative samples/group. Pan-cadherin was used as loading control. FIG. 7E show the quantification of surface expression of NMDARs normalized to Pan-cadherin (ns, p>0.05; ***, p<0.001; ANOVA, Bonferroni's test; mean±SEM; n=4 mice/group).
Eight-to nine-week-old male mice (˜25 g) were subjected to right middle cerebral artery occlusion (MCAO) for 120 min followed by 24 hours of reperfusion. The genotype information was blinded to the surgeon who conduct the surgeries. […] Mouse body temperature was monitored by a rectal temperature probe and maintained at ˜ 37° C. with an automatic temperature-regulating heating pad connected to animal temperature controller (TCA T-2DF, Physitemp). Cerebral blood flow was monitored after occlusion as well as after reperfusion. […] Successful occlusion was confirmed by 85% reduction of cerebral blood flow monitored by Laser Doppler Flowmetry (LDF) with laser Doppler blood FlowMeter (Moor-VMS-LDF1, Moor Instrument, Dever, UK). […]

T1 sequence (P35436 20-1464 limits assumed, other chains not shown): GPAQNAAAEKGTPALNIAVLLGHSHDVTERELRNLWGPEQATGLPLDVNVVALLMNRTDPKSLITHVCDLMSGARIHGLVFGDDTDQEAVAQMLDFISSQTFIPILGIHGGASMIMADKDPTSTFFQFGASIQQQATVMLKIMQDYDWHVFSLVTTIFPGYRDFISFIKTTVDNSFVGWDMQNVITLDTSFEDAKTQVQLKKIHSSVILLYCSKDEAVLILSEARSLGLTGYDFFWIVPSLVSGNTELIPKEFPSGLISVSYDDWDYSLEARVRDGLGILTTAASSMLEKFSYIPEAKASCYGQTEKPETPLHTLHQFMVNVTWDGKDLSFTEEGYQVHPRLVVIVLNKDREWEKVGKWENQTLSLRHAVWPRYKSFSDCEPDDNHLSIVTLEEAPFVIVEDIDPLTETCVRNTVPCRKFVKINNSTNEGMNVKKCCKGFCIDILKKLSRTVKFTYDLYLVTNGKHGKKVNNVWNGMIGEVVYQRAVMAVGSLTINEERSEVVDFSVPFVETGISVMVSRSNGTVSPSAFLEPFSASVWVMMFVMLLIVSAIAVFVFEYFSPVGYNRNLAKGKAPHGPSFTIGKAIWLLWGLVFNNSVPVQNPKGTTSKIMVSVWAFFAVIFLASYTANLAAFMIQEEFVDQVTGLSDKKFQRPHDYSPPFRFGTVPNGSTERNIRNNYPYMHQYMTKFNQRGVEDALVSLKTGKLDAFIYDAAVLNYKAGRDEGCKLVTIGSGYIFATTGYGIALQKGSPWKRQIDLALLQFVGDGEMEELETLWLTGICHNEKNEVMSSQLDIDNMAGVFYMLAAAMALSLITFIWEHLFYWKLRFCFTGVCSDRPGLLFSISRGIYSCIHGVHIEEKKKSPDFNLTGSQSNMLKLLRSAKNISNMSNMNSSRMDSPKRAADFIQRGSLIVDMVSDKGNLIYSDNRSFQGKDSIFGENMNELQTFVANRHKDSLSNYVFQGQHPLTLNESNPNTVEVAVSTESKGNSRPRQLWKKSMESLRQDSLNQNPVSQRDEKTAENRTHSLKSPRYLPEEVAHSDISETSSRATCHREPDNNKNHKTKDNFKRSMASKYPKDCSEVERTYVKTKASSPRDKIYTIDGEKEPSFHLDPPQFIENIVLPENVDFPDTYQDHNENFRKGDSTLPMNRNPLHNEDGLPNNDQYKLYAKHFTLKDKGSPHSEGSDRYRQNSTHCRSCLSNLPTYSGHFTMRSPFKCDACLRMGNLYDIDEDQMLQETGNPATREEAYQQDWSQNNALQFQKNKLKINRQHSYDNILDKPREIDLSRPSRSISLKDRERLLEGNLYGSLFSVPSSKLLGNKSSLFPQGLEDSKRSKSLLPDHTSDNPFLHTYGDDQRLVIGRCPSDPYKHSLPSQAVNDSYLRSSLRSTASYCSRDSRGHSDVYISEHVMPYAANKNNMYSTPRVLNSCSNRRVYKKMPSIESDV
T1 sequence (Q01097 27-1482, other chains not shown): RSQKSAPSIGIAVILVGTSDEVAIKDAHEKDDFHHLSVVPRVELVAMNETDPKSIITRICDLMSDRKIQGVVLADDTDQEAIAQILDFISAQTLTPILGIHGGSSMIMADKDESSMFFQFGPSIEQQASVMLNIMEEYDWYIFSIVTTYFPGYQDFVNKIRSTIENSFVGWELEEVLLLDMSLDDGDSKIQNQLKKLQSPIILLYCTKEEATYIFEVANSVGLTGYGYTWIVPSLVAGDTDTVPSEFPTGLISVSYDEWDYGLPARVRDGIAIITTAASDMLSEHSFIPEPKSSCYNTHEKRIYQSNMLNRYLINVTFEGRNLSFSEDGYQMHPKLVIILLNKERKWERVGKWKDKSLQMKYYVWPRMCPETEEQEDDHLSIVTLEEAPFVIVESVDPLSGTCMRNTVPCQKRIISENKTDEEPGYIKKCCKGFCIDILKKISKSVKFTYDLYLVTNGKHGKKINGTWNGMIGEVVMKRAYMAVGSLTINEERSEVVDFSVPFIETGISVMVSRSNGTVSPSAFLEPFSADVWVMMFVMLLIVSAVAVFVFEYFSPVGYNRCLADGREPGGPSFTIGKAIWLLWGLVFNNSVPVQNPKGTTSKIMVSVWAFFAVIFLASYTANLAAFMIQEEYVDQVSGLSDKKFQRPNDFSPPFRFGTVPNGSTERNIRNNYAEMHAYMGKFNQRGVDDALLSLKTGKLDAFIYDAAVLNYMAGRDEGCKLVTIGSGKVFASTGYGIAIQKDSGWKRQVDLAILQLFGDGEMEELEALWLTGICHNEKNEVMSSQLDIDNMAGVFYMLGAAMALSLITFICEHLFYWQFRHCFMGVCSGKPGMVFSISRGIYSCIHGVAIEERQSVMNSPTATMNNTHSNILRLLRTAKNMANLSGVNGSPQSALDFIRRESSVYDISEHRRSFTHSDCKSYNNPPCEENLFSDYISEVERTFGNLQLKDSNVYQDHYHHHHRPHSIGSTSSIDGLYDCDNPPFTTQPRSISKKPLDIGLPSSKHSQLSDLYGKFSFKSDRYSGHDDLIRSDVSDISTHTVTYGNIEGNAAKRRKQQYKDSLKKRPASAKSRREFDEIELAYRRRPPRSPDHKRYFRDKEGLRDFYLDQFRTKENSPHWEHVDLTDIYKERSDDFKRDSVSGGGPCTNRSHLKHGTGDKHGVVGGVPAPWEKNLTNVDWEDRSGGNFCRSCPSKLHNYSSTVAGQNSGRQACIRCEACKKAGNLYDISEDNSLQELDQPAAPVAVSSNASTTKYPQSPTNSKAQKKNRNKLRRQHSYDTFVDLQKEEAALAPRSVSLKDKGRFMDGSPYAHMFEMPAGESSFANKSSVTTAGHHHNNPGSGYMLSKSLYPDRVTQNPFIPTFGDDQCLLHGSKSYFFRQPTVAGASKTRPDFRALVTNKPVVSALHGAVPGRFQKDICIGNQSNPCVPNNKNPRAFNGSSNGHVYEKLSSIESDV

Substance: TAT-EE3: membrane permeable disrupting peptide, sequence YGRKKRRQRRREEDTDSSEEMLALAEE (SEQ ID NO: 4)
- enhanced surface expression of NMDARs in MCAO mice: abolished
